The text below walks through data of publication PMC12949589 (Neurobiology of disease, 2020).

The target of the assay is T1, PACT C213F, mammalian two-hybrid fusion (human, UniProt O75569 1-313, C213F).
T1 sequence (looked up): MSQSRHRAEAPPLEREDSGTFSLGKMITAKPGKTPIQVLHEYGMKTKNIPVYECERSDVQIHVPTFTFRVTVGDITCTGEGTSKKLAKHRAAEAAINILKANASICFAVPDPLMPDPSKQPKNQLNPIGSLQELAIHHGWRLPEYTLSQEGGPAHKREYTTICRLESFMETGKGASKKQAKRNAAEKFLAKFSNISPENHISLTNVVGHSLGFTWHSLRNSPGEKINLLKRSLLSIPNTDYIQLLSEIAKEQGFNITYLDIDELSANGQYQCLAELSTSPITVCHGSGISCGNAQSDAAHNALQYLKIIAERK
Kind of assay: two-hybrid.

Substitutions are numbered along the chain they refer to. Names and notes keep the numbering of the source.

B1: PACT C77S, mammalian two-hybrid fusion (natural protein, human, UniProt O75569 1-313, looked up)
chain: T1 sequence (looked up) with C77S, F213C
As to B1, the “fold over wt PACT-wt PACT interaction (luciferase reporter)” value was about 9 fold.
